Reference: publication PMC2781463 (The Journal of Biological Chemistry, 2009)

Biological target: Blom7α-His6 (pET-30a(+)) (human, UniProt Q7Z7F0-1 1-614)
Assay: pull-down

binding result: binds
B1: GST-SNEV^Prp19-Pso4 (natural protein)
chain: MSLICSISNEVPEHPCVSPVSNHVYERRLIEKYIAENGTDPINNQPLSEEQLIDIKVAHPIRPKPPSATSIPAILKALQDEWDAVMLHSFTLRQQLQTTRQELSHALYQHDAACRVIARLTKEVTAAREALATLKPQAGLIVPQAVPSSQPSVVGAGEPMDLGELVGMTPEIIQKLQDKATVLTTERKKRGKTVPEELVKPEELSKYRQVASHVGLHSASIPGILALDLCPSDTNKILTGGADKNVVVFDKSSEQILATLKGHTKKVTSVVFHPSQDLVFSASPDATIRIWSVPNASCVQVVRAHESAVTGLSLHATGDYLLSSSDDQYWAFSDIQTGRVLTKVTDETSGCSLTCAQFHPDGLIFGTGTMDSQIKIWDLKERTNVANFPGHSGPITSIAFSENGYYLATAADDSSVKLWDLRKLKNFKTLQLDNNFEVKSLIFDQSGTYLALGGTDVQIYICKQWTEILHFTEHSGLTTGVAFGHHAKFIASTGMDRSLKFYSL
